From the DeepSol protein solubility set

Assay: soluble on expression in E. coli; label from the status in PepcDB or PDB records
For “MAHHHHHHMTTERPCGERNGHTHSSSAADGTFDQPDTAVLLYGGLPPMPKPSVQRGEGSMEREFDQAAVSPSPVAAVAASSVVGGDTSPGSSPHIGVHEADDPTKNFDNSTEEEHMDLFISAMSPQNCVDRPQRRARGALMPPLPSPGEADAGAMMQSEMHTTPMTKTHTPDLRVTMYENQELRRELATVRASLRQALQTIETRELECVELHRLVDEMQAQLNGLKPEANLRPTQTDAQGNGEGSTRPEKSAFKLQATKDTTGPQIIGKYESKEEWRMTPSRELFAAEVKHDAHTEASTTTAIAAVKMNATDAPTTVEETISMGQLCEERDRLAKELAQTKIVVAEQETVLDRLGLRFPYPGALVAAARRTIPAFEPLRKSRKQKPGPLVVDRTTQMRGERAERRE”, the “soluble on expression in E. coli” value was “not soluble”. For “MSLKELEEIRKEIDEVDKIITELFEKRMNLVMEVAEYKEKNSIPVSDSKREKKVIDKNIGYLKNKEYSEVLKEFYINFMNLSKKLERKRIYNEEKTSVNTSIYGLIGEKLGHSHSSYIHKLIFEKVGIKGIYNLFEVPKEKLKESVDTFKIIKCGGLNVTIPYKVEVMKELYEISEKARKIGAVNTLKFSREGISGFNTDYIGFGKMLSKFRVEIKNNICVVLGSGGAARAVLQYLKDNFAKDIYVVTRNPEKTSEIYGEFKVISYDELSNLKGDVIINCTPKGMYPKEGESPVDKEVVAKFSSAVDLIYNPVETLFLKYARESGVKAVNGLYMLVSQAAASEEIWNDISIDEIIVDEIFEVLEEKIKSEGHHHHHH”, the “soluble on expression in E. coli” value was “soluble”. In the case of “MTVYFIGAGPGAADLITVRGQRLLQRCPVCLYAGSIMPDDLLAQCPPGATIVDTGPLTLEQIVRKLADADADGRDVARLHSGDPSLYSALAEQCRELDALGIGYEIVPGVPAFAAAAAALKRELTVPGVAQTVTLTRVATLSTPIPPGEDLAALARSRATLVLHLAAAQIDAIVPRLLDGGYRPETPVAVVAFASWPQQRTLRGTLADIAARMHDAKITRTAVIVVGDVLTAEGFTDSYLYSVARHGRYAQ”, the “soluble on expression in E. coli” value was “not soluble”. With “MAYITYQQYLDLYGTCPISEEEFPVYAGLASDMIDSITRYRIVEGGGISALPSILQTLVQKAAAAQVLYFTQIGLETVLTGQAGQSFTVGKVSVSGGALSSTTTKPGALMVSPFALSLLEQTPLMERGVHVCSDRFLNPFWGILEHHHHHH” the “soluble on expression in E. coli” value was “soluble”. For “MIKSSSKIGLAFFVRPQFDVDLAKNFFNKVQDSLKEAGIATQVFELPVSTDAEALSLAESVNSHQDLHGLIVVQGTFCDASLILNLASNINLPIMIWATKEQPTGGRLSLNSFCGLNLGAHTLVNAGIKFKGVYGSPGSPAVIKKVTSFARAAGAVKWLKGKRIGLFGHRPSGYYPSNFNEILLRKQFGITVEYLSLSEVFSLAQKMEIKDIQPFINTLVGVEGLEMVSTSKSVQAYLALKELIAQKALDAVAVECWPEFMAGFGGAVCYALSRLNDEGIVAACEADVNGAVTMLLGSYLSSQANFIADLVGAEEEQNQLIFWHCGNGPLSLAAPGTNPVAGVHPNRKTPLAMYFPLKGGPVTVSRLSSDHNGNLRLFLGSGTGIETDLLYSGNSLPIQISGSVEETLDTILCEGIEHHYIVTYGDLTSEFREIAELLGLRMITF”, the “soluble on expression in E. coli” value was “not soluble”. For “MQAFRAPSLATIDDVCGTRADGYDGAPLRSIPDFAVIVPMHNEEASVETLVAEIVTACQPVGQFEIVVVDDASSDRTVNAVLSLGDRYPMLRLVRHDRQGGQSAAIHSGVQAARAPVICMLDGDGQNPPDNLPALLAPLLSATATSRLGLVAGQRVGRRDTLGKRLSSRFANGLRARILKDGTRDTGCGLKAFRRDAYLALPYFDHHHRYFPALFNRDGWQVAHVDVTHRARLHGNSHYTNIGRALVGIHDLIGVVWLLRRRKRSSWAETFKTETSPLEHHHHHH”, the “soluble on expression in E. coli” value was “soluble”. With “MSLSHYTVGELANHLGVTVRTLQYYDRKGLLTAERATESNRRYYNDDHIQQLQLIFLLKQFGCTLDEIKTLLYEDSDMQTLKAMLQLHKKKLETSIHDQTKALKHLNNVDQYISSHSSAPINHLSDIDKAVKQSTTLKSEGHHHHHH” the “soluble on expression in E. coli” value was “not soluble”. With “MIIIGIDEAGRGPVLGPMVVCAFAIEKEREEELKKLGVKDSKELTKNKRAYLKKLLENLGYVEKRILEAEEINQLMNSINLNDIEINAFSKVAKNLIEKLNIRDDEIEIYIDACSTNTKKFEDSFKDKIEDIIKERNLNIKIIAEHKADAKYPVVSAASIIAKAERDEIIDYYKKIYGDIGSGYPSDPKTIKFLEDYFKKHKKLPDIARTHWKTCKRILDKSKQTKLIIE” the “soluble on expression in E. coli” value was “soluble”. In the case of “MPVAPNPLLQANAIAKTSRSATVQADKPLQALGDKGDAFGQVMARQGRDKVTGQDDKVAQAKPKDKPDAAAGGKKDPAGKAAVADDGNKLPEEDSAQADTGVRDASLVAGQVTDAQPGAQLIQAQAEAVAPVLQAATAQTQVSAALPEEPSAEEAFDPDADPLANLPTLRLALEHSAQAKGGTSAHALDAAQAQGEEGQAAVNTLANLVEDTDGESAESGGKAFGALLEDGLKDTKSASSDTRIDDFANRLASLTQAATAKTANAVPATANPLHQPLPMNQNAWAEGLVNRVMYLSSQNLKSADIQLEPAELGRLDIRVNVAADQATQVTFISGHAGVRDALDSQVHRLRELFAQQGLAQPDVNVADQSRGQQQQQGQAQGSNLSGVAARRAEQGGAEAVDSARPLEQQVVVGDSAVDYYA”, the “soluble on expression in E. coli” value was “not soluble”. With “MSLDVTAKYELIGLMAYPIRHSLSPEMQNKALEKAGLPFTYMAFEVDNDSFPGAIEGLKALKMRGTGVSMPNKQLACEYVDELTPAAKLVGAINTIVNDDGYLRGYNTDGTGHIRAIKESGFDIKGKTMVLLGAGGASTAIGAQGAIEGLKEIKLFNRRDEFFDKALAFAQRVNENTDCVVTVTDLADQQAFAEALASADILTNGTKVGMKPLENESLVNDISLLHPGLLVTECVYNPHMTKLLQQAQQAGCKTIDGYGMLLWQGAEQFTLWTGKDFPLEYVKQVMGFGAEGGSHHHHHH” the “soluble on expression in E. coli” value was “soluble”. For “MVRLTTELFAERPQFVNSVNMREINLRGQKIPVIENMGVTRDQFDVIDLTDNDIRKLDNFPTFSRLNTLYLHNNRINYIAPDIATKLPNLKTLALTNNNICELGDIEPLAECKKLEYVTFIGNPITHKDNYRMYMIYKLPTVRVIDFNRVRLTEREAAKKMFKGKSGKKARDAIQKSVHTEDPSEIEPNENSSGGGARLTDEDREKIKEAIKNAKSLSEVNYLQSILASGKVPEKGWNRQMDQNGADGEAMES”, the “soluble on expression in E. coli” value was “not soluble”. For “MGSDKIHHHHHHMFKIVYPNAKDFFSFINSITNVTDSIILNFTEDGIFSRHLTEDKVLMAIMRIPKDVLSEYSIDSPTSVKLDVSSVKKILSKASSKKATIELTETDSGLKIIIRDEKSGAKSTIYIKAEKGQVEQLTEPKVNLAVNFTTDESVLNVIAADVTLVGEEMRISTEEDKIKIEAGEEGKRYVAFLMKDKPLKELSIDTSASSSYSAEMFKDAVKGLRGFSAPTMVSFGENLPMKIDVEAVSGGHMIFWIAPRL”, the “soluble on expression in E. coli” value was “not soluble”. In the case of “MGSDKIHHHHHHMKLSLVISTSDAAFDALAFKGDLRKGMELAKRVGYQAVEIAVRDPSIVDWNEVKILSEELNLPICAIGTGQAYLADGLSLTHPNDEIRKKAIERVVKHTEVAGMFGALVIIGLVRGRREGRSYEETEELFIESMKRLLELTEHAKFVIEPLNRYETDFINTIDDALRILRKINSNRVGILADTFHMNIEEVNIPESLKRAGEKLYHFHVADSNRWAPGCGHFDFRSVFNTLKEIGYNRYVSVECLPLPGGMEEAAEIAFKTLKELIIKLT”, the “soluble on expression in E. coli” value was “not soluble”. With “MVNKKRQVRFEFFQVNGKAQEGEKIVKGLFDLYPLADRINSISNYTDRDVILFGEKVRMDRFFEVSSSPELYAMHFTRLRNDKPAYVELNNEVLKEIPLNPGEYIAEDISCLYDRELSVLMVQRNIHSLSPSGIEDYFTEMSDDLVEIELLPVVNKEIISKALANEKFRKLELRAGSMNTTSDRSGLRKVLGPFMELFEKFEGTNFVIEISSGRSKKDLSEDQMKEVITAIEQDKSLFSSAIVSAKKSKEVPVEKYDLINGKLYVYRSFDLPDGAFLKSDSVIDNIKNYYFHPNEGGYRKQIIDAVK” the “soluble on expression in E. coli” value was “not soluble”. For “MEQQQRYISVLDIGTSKVLALIGEVQDDDKINIVGLGQAPSRGLRAGMVTNIDATVQAIRQAVNDAELMADTKITHVTTGIAGNHIRSLNSQGVVKIKDGEVTQADIDRAIETAKAINIPPDQKILDAVVQDYIIDTQLGVREPIGMSGVRLDTRVHIITGASTAVQNVQKCIERCGLKSD”, the “soluble on expression in E. coli” value was “not soluble”. For “MGSDKIHHHHHHMSEKKKVLMLHGFVQSDKIFSAKTGGLRKNLKKLGYDLYYPCAPHSIDKKALFQSESEKGRDAAKEFNTSATSDEVYGWFFRNPESFNSFQIDQKVFNYLRNYVLENGPFDGVIGFSQGAGLGGYLVTDFNRILNLTDEQQPALKFFISFSGFKLEDQSYQKEYHRIIQVPSLHVRGELDEVVAESRIMALYESWPDNKRTLLVHPGAHFVPNSKPFVSQVCNWIQGITSKEGQEHNAQPEVDRKQFDKPQLEDDLLDMIDSLGKL”, the “soluble on expression in E. coli” value was “not soluble”. In the case of “MKQPFERILREICFMVKVEGRKVLRDFGITPAQFDILQKIYFEGPKRPGELSVLLGVAKSTVTGLVKRLEADGYLTRTPDPADRRAYFLVITRKGEEVIEKVIERRENFIEKITSDLGKEKSSKILDYLKELKGVMERNFSKQ”, the “soluble on expression in E. coli” value was “soluble”. With “MSLPVCYYLDATGGDDNNSGLAPDEAWKSLEKLRGVKLLPGNKVLLKRGEVFNGELEITGQGIPEDRIYIDAYGDDERKPCIVGYDTSLYAARICNSDYITMQNLEIVNTGRQPLPYRSGLKIECMDYGVSQNIVVNNVTVRDVNGSLVKEKGGGCGIYIVNGGEKKISTFNRLTIENCHILRCTRNAMIWAAYSDRQNWHPSKHTVIRGNLIEEVPGDGIVPIGCDSTLIEYNVMRDCPDMLPDTEAAAGIWPWSCDNTLVQFNEVSGHKAPWDAQGFDSDWNCRGTVIQYNYSHDNYGGLVLVCNDGTADASFNVGNLGTIVRYNVSIGDGVRPEPTRAGMFSPAVHLAGPVKDSRITRNIIHVNRKPAADIDRTMITLDSWGGYPDSTFISGNIFYAPESSRFQLTESTHNFFEGNYYLGRFEKLPEDGKACQSAEIYQKEVLAKDENGYQGLALLMDTVEVTGVKGVFVNKEAIENFFSRLEKEGHHHHHH” the “soluble on expression in E. coli” value was “soluble”. In the case of “TLDYNIQQQAYNLLGDNKGSVVVLNPKTGEILAMVSKPSYDPNDDALKASWAALNSNPDRPLLNRAVSGLYPPGSTFKTVTAISALENISGIQNETFNDPGQLVFNSTESLRDFGGESFGDIGFKHAYVVSSNVVFGKIGLQLGNNNLRQTAESFYFNKNIPCDGIVIDKSKFPTLKSYEKGNMAQSAIGQASVLATPIQMALVASTVANDGVMMKPHVVNEILSPNGDKIKSIEPESIGNIVSKENAATMKDFMRNVVEDGTGVNAAVEGIQVAGKTGTADHKVNGKDATPHSWFIGFAPYDNPQVAIAVIVEDGGQGGKAAAGIASKVIQTALQK”, the “soluble on expression in E. coli” value was “not soluble”. With “MSLTFIRKVETWITNSKQTEDGWSQIKPFIFLKLTNSDGFEGWGEAFSLPAREKGIVEIIHNLMSSLSYVKDITPDRFYTESNLIADGHRGIDFSAATSAIEMSLWDIEGKKEKKPLYKILSKDYREKVPVYATIWSEDFKNDENLSSRCIEILSDGYGGIKIYPLQNRTVEQAAKCVSKIRDVLGYKIPLMLDLACPKDTNISLKLASLVEEFRPYWFEEPVDGEATRALKDIREKTSLRIVSGEKQCGLNHFIETLALDAVDIFNPDISGVGGIIDMIKIIKLSHEKKVTVSPHCWNSMSIAASAMVHVCMSFTNTEMAEFFPEYIPYSLKFSNQNYEIKDGFVKIEDNEGLGINIDTKLLMEDTSSYRETELTEGHHHHHH” the “soluble on expression in E. coli” value was “soluble”. With “GSDSSLFETYNVELVRKDGQSLGIRIVGYVGTSHTGEASGIYVKSVIPGSAAYHNGHIQVNDKIVAVDGVNIQGFANHDVVEVLRNAGQVVHLTLVRRKTSSSTSPLEPPSDRGTV” the “soluble on expression in E. coli” value was “soluble”.
